B1: HIV02 IgM+J (HIV02M+J) (antibody)
heavy: QVQLVQSGGQMKKPGESMRISCQASGYEFIDCTLNWVRLAPGRRPEWMGWLKPRGGAVNYARPLQGRVTMTRDVYSDTAFLELRSLTADDTAVYYCTRGKNCDYNWDFEHWGRGTPVTVSSGSASAPTLFPLVSCENSPSDTSSVAVGCLAQDFLPDSITFSWKYKNNSDISSTRGFPSVLRGGKYAATSQVLLPSKDVMQGTDEHVVCKVQHPNGNKEKNVPLPVIAELPPKVSVFVPPRDGFFGNPRKSKLICQATGFSPRQIQVSWLREGKQVGSGVTTDQVQAEAKESGPTTYKVTSTLTIKESDWLSQSMFTCRVDHRGLTFQQNASSMCVPDQDTAIRVFAIPPSFASIFLTKSTKLTCLVTDLTTYDSVTISWTRQNGEAVKTHTNISESHPNATFSAVGEASICEDDWNSGERFTCTVTHTDLPSPLKQTISRPKGVALHRPDVYLLPPAREQLNLRESATITCLVTGFSPADVFVQWMQRGQPLSPEKYVTSAPMPEPQAPGRYFAHSILTVSEEEWNTGETYTCVVAHEALPNRVTERTVDKSTGKPTLYNVSLVMSDTAGTCY
light: EIVLTQSPGTLSLSPGETAIISCRTSQYGSLAWYQQRPGQAPRLVIYSGSTRAAGIPDRFSGSRWGPDYNLTIRNLESGDFGLYYCQQYEFFGQGTKVQVDIKRTVAAPSVFIFPPSDEQLKSGTASVVCLLNNFYPREAKVQWKVDNALQSGNSQESVTEQDSKDSTYSLSSTLTLSKADYEKHKVYACEVTHQGLSSPVTKSFNRGEC
chain: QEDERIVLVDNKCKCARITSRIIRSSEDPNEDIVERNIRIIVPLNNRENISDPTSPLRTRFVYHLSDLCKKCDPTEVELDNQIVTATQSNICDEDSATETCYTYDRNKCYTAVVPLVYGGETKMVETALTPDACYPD
notes: also called the IgM+J
B2: HIV02 IgG (HIV02G) (antibody, V domains shown)
VH: QVQLVQSGGQMKKPGESMRISCQASGYEFIDCTLNWVRLAPGRRPEWMGWLKPRGGAVNYARPLQGRVTMTRDVYSDTAFLELRSLTADDTAVYYCTRGKNCDYNWDFEHWGRGTPVTVSS
VL: EIVLTQSPGTLSLSPGETAIISCRTSQYGSLAWYQQRPGQAPRLVIYSGSTRAAGIPDRFSGSRWGPDYNLTIRNLESGDFGLYYCQQYEFFGQGTKVQVDI
notes: also called the IgG

Key:
[1] = target: T1, HIV gp120 antigen (strain HXB2, Immune Tech, cat #IT-001-0022p-PBS) (HIV, strain HXB2, UniProt P04578 33-511); test: ELISA, gp120 coated at 1 µg/mL
T1 construct: domain: gp120; Bought protein coated on ELISA plates; also called gp120 HBX2

[2] = target: T1, HIV gp120 antigen (strain HXB2, Immune …); test: ELISA, interpolated EC10 values; gp120 coated at 0.1 µg/mL
[3] = target: T1, HIV gp120 antigen (strain HXB2, Immune …); test: ELISA, interpolated EC10 values; gp120 coating 0.1 µg/mL end of the series
[4] = target: T1, HIV gp120 antigen (strain HXB2, Immune …); test: ELISA, interpolated EC10 values; gp120 coating 1.0 µg/mL end of the series
[5] = target: T1, HIV gp120 antigen (strain HXB2, Immune …); test: ELISA, gp120 coated at 1 µg/mL, anti-human kappa-HRP detection; value given to the IgM+J by the sense of the sentence, not by its word order
[6] = target: T1, HIV gp120 antigen (strain HXB2, Immune …); test: ELISA, gp120 coated at 1 µg/mL, anti-human kappa-HRP detection; value given to the IgG by the sense of the sentence, not by its word order

| Binder | fold better binding than HIV02G, on a molar basis [1] [fold] | fold difference in EC50 against HIV02G, by weight [1] [fold] | fold better binding than the IgG (HIV02G), on a molar basis [2] [fold] | fold binding relative to the IgG (HIV02G), on a weight basis (from EC10) [3] [fold] | fold binding relative to the IgG (HIV02G), on a weight basis (from EC10) [4] [fold] | EC50 [5] [µg/mL] | EC50 [6] [µg/mL] |
| --- | --- | --- | --- | --- | --- | --- | --- |
| B1 | 42 | 7 | 120 | 20 | 5 | 0.32 | – |
| B2 | – | – | – | – | – | – | 2.3 |

Source: US20180118816A1 (IGM BIOSCIENCES, published 2018)
